Assay results from publication PMC12224988, “The MdHB7L–MdICE1L–MdHOS1 Module Fine‐Tunes Apple Cold Response via CBF‐Dependent and CBF‐Independent Pathways”.

T1: MdHB7L-HIS (UniProt D9ZJ22 1-236)
T1 sequence: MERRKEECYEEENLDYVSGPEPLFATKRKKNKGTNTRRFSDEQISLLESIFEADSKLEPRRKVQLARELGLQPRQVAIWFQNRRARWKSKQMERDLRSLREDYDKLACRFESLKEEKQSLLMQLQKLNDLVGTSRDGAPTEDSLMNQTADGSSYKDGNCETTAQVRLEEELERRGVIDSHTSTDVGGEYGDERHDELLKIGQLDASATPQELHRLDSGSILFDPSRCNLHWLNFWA

B1: pMdCBF1-HB-P1 (dsDNA)
DNA 1: AAAGCATAGAAATAATTCCAAAACTATTTT
DNA 2: AAAATAGTTTTGGAATTATTTCTATGCTTT
B2: pMdCBF1-HB-P2 (dsDNA)
DNA 1: CTATTATTATTAATTACTTTTTTCACATAA
DNA 2: TTATGTGAAAAAAGTAATTAATAATAATAG
B3: pMdPRX52-2-HB (dsDNA)
DNA 1: TATTAAATCAGAATTATTAAGAGAAAATAA
DNA 2: TTATTTTCTCTTAATAATTCTGATTTAATA
B4: pMdPRX52-3-HB (dsDNA)
DNA 1: CAAATGTAATTAGCATTAATCCCAACTAACTATAAAAATGATTATCCTTG
DNA 2: CAAGGATAATCATTTTTATAGTTAGTTGGGATTAATGCTAATTACATTTG
B5: pMdPRX52-4-HB (dsDNA)
DNA 1: CTTGTCCGTAAATGATTGACATTGGTTTAC
DNA 2: GTAAACCAATGTCAATCATTTACGGACAAG
B6: pMdPRX52-5-HB (dsDNA)
DNA 1: AATTAAGCTAAATCATTAACAATTTTCATT
DNA 2: AATGAAAATTGTTAATGATTTAGCTTAATT
B7: pMdRD26-1-HB (dsDNA)
DNA 1: ATGCGACCATTAATTAAACTTACAAAATGT
DNA 2: ACATTTTGTAAGTTTAATTAATGGTCGCAT
B8: pMdRD26-2-HB (dsDNA)
DNA 1: TCATTAAAGAGATAATTATGAAATAAAATA
DNA 2: TATTTTATTTCATAATTATCTCTTTAATGA
B9: pMdRD26-3-HB (dsDNA)
DNA 1: ATAGAAATAAATAATTGACGAGATAAATAG
DNA 2: CTATTTATCTCGTCAATTATTTATTTCTAT
B10: pMdRD26-4-HB (dsDNA)
DNA 1: ATAAATATAATTACCTGTGAGTTGATTATA
DNA 2: TATAATCAACTCACAGGTAATTATATTTAT
B11: pMdPAP2-1-HB (dsDNA)
DNA 1: GATGTGTGTTGTAATTAGTTACACGATTCT
DNA 2: AGAATCGTGTAACTAATTACAACACACATC
B12: pMdPAP2-2-HB (dsDNA)
DNA 1: GCACCAAGTCCAATTATTGAGCAATTAATG
DNA 2: CATTAATTGCTCAATAATTGGACTTGGTGC
B13: pMdCBF1-HB-P3 (dsDNA)
DNA 1: TAGCAACTAATTAAGTCTTCAATAATTTCTAAAAGCA
DNA 2: TGCTTTTAGAAATTATTGAAGACTTAATTAGTTGCTA
B14: pMdERDL6-7-1-HB (dsDNA)
DNA 1: GCATTTTATAATTGTTTATTATTTTTAATTAGAAAAAATC
DNA 2: GATTTTTTCTAATTAAAAATAATAAACAATTATAAAATGC
B15: pMdERDL6-7-2-HB (dsDNA)
DNA 1: CAATATAATTAATTAAAAATTTTAAACTTTTCAACTAATTATGTTAG
DNA 2: CTAACATAATTAGTTGAAAAGTTTAAAATTTTTAATTAATTATATTG
B16: pMdERDL6-7-3-HB (dsDNA)
DNA 1: CTTCATATCTTAATCATTCATCATGTATCG
DNA 2: CGATACATGATGAATGATTAAGATATGAAG
B17: pMdERDL6-7-4-HB (dsDNA)
DNA 1: CTTAAAATTTCTTAATTATCAGTTAACACC
DNA 2: GGTGTTAACTGATAATTAAGAAATTTTAAG
B18: pMdERDL6-7-5-HB (dsDNA)
DNA 1: ATGCAGAATCATTTATCCTTAATTAATCATA
DNA 2: TATGATTAATTAAGGATAAATGATTCTGCAT
B19: pMdERDL6-1-1-HB (dsDNA)
DNA 1: TTAGGATAGTAATTGGTAACTCTCGACTCC
DNA 2: GGAGTCGAGAGTTACCAATTACTATCCTAA
B20: pMdERD5-1-HB (dsDNA)
DNA 1: GAACTGCCTATATAATTAACAAGCTTCAGG
DNA 2: CCTGAAGCTTGTTAATTATATAGGCAGTTC
B21: pMdERD5-2-HB (dsDNA)
DNA 1: TCTTTTTAGACCCTAATTATAGGGAAAGGG
DNA 2: CCCTTTCCCTATAATTAGGGTCTAAAAAGA
B22: pMdERD5-3-HB (dsDNA)
DNA 1: ATTGTTTGTATTTAATTGTAAATAAAAATA
DNA 2: TATTTTTATTTACAATTAAATACAAACAAT
B23: pMdERD5-4-HB (dsDNA)
DNA 1: TTAAGACTAGCTTAATTGCGAGGATATCAT
DNA 2: ATGATATCCTCGCAATTAAGCTAGTCTTAA
B24: pMdCBF1-HB-P4 (dsDNA)
DNA 1: GAAATTAAGTACTAATTGTTCAGTACCAAG
DNA 2: CTTGGTACTGAACAATTAGTACTTAATTTC
B25: pMdCBF3-HB-P1 (dsDNA)
DNA 1: AAAAATAAAATGATTAGCCTGGCGCATCTA
DNA 2: TAGATGCGCCAGGCTAATCATTTTATTTTT
B26: pMdCBF3-HB-P2 (dsDNA)
DNA 1: CACTGTCGATTTAAATCATTCATACAGAAA
DNA 2: TTTCTGTATGAATGATTTAAATCGACAGTG
B27: pMdPRX53-1-HB (dsDNA)
DNA 1: AATAGACCTACTAATTGGCTCACATATGCA
DNA 2: TGCATATGTGAGCCAATTAGTAGGTCTATT
B28: pMdPRX53-2-HB (dsDNA)
DNA 1: AATACGCCTCTAATTATTAGGTGCTTTTTG
DNA 2: CAAAAAGCACCTAATAATTAGAGGCGTATT
B29: pMdPRX53-3-HB (dsDNA)
DNA 1: TAAGTCTTTGTGTAATTAACAAAACAACGA
DNA 2: TCGTTGTTTTGTTAATTACACAAAGACTTA
B30: pMdPRX52-1-HB (dsDNA)
DNA 1: GTTAAACCAATTTAATTAATAAGATCTTAT
DNA 2: ATAAGATCTTATTAATTAAATTGGTTTAAC

Target: T1, MdHB7L-HIS
Assay: EMSA; Beyotime Chemiluminescent EMSA Kit per manufacturer; buffer, salt, pH and temperature not given
Conditions: protein: recombinant; tags: His (pET28a; BamHI/SalI site primers, no stop codon in reverse primer); chain copies: 2; label: biotin; blunt

Binder	binding result
B1	binds
B2	binds
B3	binds
B4	binds
B5	binds
B6	binds
B7	binds
B8	binds
B9	binds
B10	no binding
B11	no binding
B12	binds
B13	binds
B14	binds
B15	binds
B16	binds
B17	binds
B18	binds
B19	binds
B20	binds
B21	binds
B22	binds
B23	binds
B24	binds
B25	binds
B26	binds
B27	binds
B28	binds
B29	no binding
B30	binds
